{"source": "IntAct's records for PubMed 35512704", "parents": {"B1": {"name": "Speckle-type POZ protein (Homo sapiens), O43791 (parent)", "chain": "MSRVPSPPPPAEMSSGPVAESWCYTQIKVVKFSYMWTINNFSFCREEMGEVIKSSTFSSGANDKLKWCLRVNPKGLDEESKDYLSLYLLLVSCPKSEVRAKFKFSILNAKGEETKAMESQRAYRFVQGKDWGFKKFIRRDFLLDEANGLLPDDKLTLFCEVSVVQDSVNISGQNTMNMVKVPECRLADELGGLWENSRFTDCCLCVAGQEFQAHKAILAARSPVFSAMFEHEMEESKKNRVEINDVEPEVFKEMMCFIYTGKAPNLDKMADDLLAAADKYALERLKVMCEDALCSNLSVENAAEILILADLHSADQLKTQAVDFINYHASDVLETSGWKSMVVSHPHLVAEAYRSLASAQCPFLGPPRKRLKQS"}}, "data": [{"variants_of": "B1", "conditions": "with dpod1_human POLD1, P28340", "values": [{"variant": "F102C", "effect of a mutation on the interaction": "with no effect"}]}, {"variants_of": "B1", "conditions": "with dpoe1_human POLE", "values": [{"variant": "F102C", "effect of a mutation on the interaction": "with no effect"}]}, {"variants_of": "B1", "conditions": "with ppard_human PPARD", "values": [{"variant": "F102C", "effect of a mutation on the interaction": "with no effect"}]}, {"variants_of": "B1", "conditions": "with prdm1_human PRDM1, O75626", "values": [{"variant": "F102C", "effect of a mutation on the interaction": "with no effect"}]}, {"variants_of": "B1", "conditions": "with prex2_human PREX2, Q70Z35", "values": [{"variant": "F102C", "effect of a mutation on the interaction": "with no effect"}]}, {"variants_of": "B1", "conditions": "with aapk2_human PRKAA2, P54646", "values": [{"variant": "F102C", "effect of a mutation on the interaction": "with no effect"}]}, {"variants_of": "B1", "conditions": "with prss8_human PRSS8, Q16651", "values": [{"variant": "F102C", "effect of a mutation on the interaction": "with no effect"}]}, {"variants_of": "B1", "conditions": "with tf65_human RELA", "values": [{"variant": "F102C", "effect of a mutation on the interaction": "with no effect"}]}, {"variants_of": "B1", "conditions": "with rictr_human RICTOR", "values": [{"variant": "F102C", "effect of a mutation on the interaction": "with no effect"}]}, {"variants_of": "B1", "conditions": "with rnf43_human RNF43, Q68DV7", "values": [{"variant": "F102C", "effect of a mutation on the interaction": "with no effect"}]}, {"variants_of": "B1", "conditions": "with ros1_human ROS1, P08922", "values": [{"variant": "F102C", "effect of a mutation on the interaction": "with no effect"}]}, {"variants_of": "B1", "conditions": "with rl11_human RPL11, P62913", "values": [{"variant": "F102C", "effect of a mutation on the interaction": "with no effect"}]}, {"variants_of": "B1", "conditions": "with rl5_human RPL5, P46777", "values": [{"variant": "F102C", "effect of a mutation on the interaction": "with no effect"}]}, {"variants_of": "B1", "conditions": "with rs15_human RPS15, P62841", "values": [{"variant": "F102C", "effect of a mutation on the interaction": "with no effect"}]}, {"variants_of": "B1", "conditions": "with rptor_human RPTOR", "values": [{"variant": "F102C", "effect of a mutation on the interaction": "with no effect"}]}, {"variants_of": "B1", "conditions": "with rxra_human RXRA", "values": [{"variant": "F102C", "effect of a mutation on the interaction": "with no effect"}]}, {"variants_of": "B1", "conditions": "with sdha_human SDHA", "values": [{"variant": "F102C", "effect of a mutation on the interaction": "with no effect"}]}, {"variants_of": "B1", "conditions": "with setbp_human SETBP1, Q9Y6X0", "values": [{"variant": "F102C", "effect of a mutation on the interaction": "with no effect"}]}, {"variants_of": "B1", "conditions": "with skp2_human SKP2, Q13309", "values": [{"variant": "F102C", "effect of a mutation on the interaction": "with no effect"}]}, {"variants_of": "B1", "conditions": "with smad1_human SMAD1, Q15797", "values": [{"variant": "F102C", "effect of a mutation on the interaction": "with no effect"}]}, {"variants_of": "B1", "conditions": "with smca4_human SMARCA4, P51532", "values": [{"variant": "F102C", "effect of a mutation on the interaction": "with no effect"}]}, {"variants_of": "B1", "conditions": "with snf5_human SMARCB1, Q12824", "values": [{"variant": "F102C", "effect of a mutation on the interaction": "with no effect"}]}, {"variants_of": "B1", "conditions": "with smo_human SMO", "values": [{"variant": "F102C", "effect of a mutation on the interaction": "with no effect"}]}, {"variants_of": "B1", "conditions": "with socs1_human SOCS1, O15524", "values": [{"variant": "F102C", "effect of a mutation on the interaction": "with no effect"}]}, {"variants_of": "B1", "conditions": "with sox10_human SOX10, P56693", "values": [{"variant": "F102C", "effect of a mutation on the interaction": "with no effect"}]}, {"variants_of": "B1", "conditions": "with sox2_human SOX2, P48431", "values": [{"variant": "F102C", "effect of a mutation on the interaction": "with no effect"}]}, {"variants_of": "B1", "conditions": "with src_human SRC", "values": [{"variant": "F102C", "effect of a mutation on the interaction": "with no effect"}]}, {"variants_of": "B1", "conditions": "with whr1_human WHR1, P49842", "values": [{"variant": "F102C", "effect of a mutation on the interaction": "with no effect"}]}, {"variants_of": "B1", "conditions": "with stk38_human STK38, Q15208", "values": [{"variant": "F102C", "effect of a mutation on the interaction": "with no effect"}]}, {"variants_of": "B1", "conditions": "with eloc_human ELOC", "values": [{"variant": "F102C", "effect of a mutation on the interaction": "with no effect"}]}, {"variants_of": "B1", "conditions": "with tfe2_human TCF3, P15923", "values": [{"variant": "F102C", "effect of a mutation on the interaction": "with no effect"}]}, {"variants_of": "B1", "conditions": "with tead1_human TEAD1, P28347", "values": [{"variant": "F102C", "effect of a mutation on the interaction": "with no effect"}]}, {"variants_of": "B1", "conditions": "with tead3_human TEAD3, Q99594", "values": [{"variant": "F102C", "effect of a mutation on the interaction": "with no effect"}]}, {"variants_of": "B1", "conditions": "with tead4_human TEAD4, Q15561", "values": [{"variant": "F102C", "effect of a mutation on the interaction": "with no effect"}]}, {"variants_of": "B1", "conditions": "with tgfr2_human TGFBR2, P37173", "values": [{"variant": "F102C", "effect of a mutation on the interaction": "with no effect"}]}, {"variants_of": "B1", "conditions": "with tnr14_human TNFRSF14, Q92956", "values": [{"variant": "F102C", "effect of a mutation on the interaction": "with no effect"}]}, {"variants_of": "B1", "conditions": "with tsc2_human TSC2, P49815", "values": [{"variant": "F102C", "effect of a mutation on the interaction": "with no effect"}]}, {"variants_of": "B1", "conditions": "with tshr_human TSHR", "values": [{"variant": "F102C", "effect of a mutation on the interaction": "with no effect"}]}, {"variants_of": "B1", "conditions": "with vegfa_human VEGFA", "values": [{"variant": "F102C", "effect of a mutation on the interaction": "with no effect"}]}, {"variants_of": "B1", "conditions": "with vhl_human VHL", "values": [{"variant": "F102C", "effect of a mutation on the interaction": "with no effect"}]}, {"variants_of": "B1", "conditions": "with wee1_human WEE1, P30291", "values": [{"variant": "F102C", "effect of a mutation on the interaction": "with no effect"}]}, {"variants_of": "B1", "conditions": "with wwtr1_human WWTR1, Q9GZV5", "values": [{"variant": "F102C", "effect of a mutation on the interaction": "with no effect"}]}, {"variants_of": "B1", "conditions": "with xpo1_human XPO1, O14980", "values": [{"variant": "F102C", "effect of a mutation on the interaction": "with no effect"}]}, {"variants_of": "B1", "conditions": "with igf1r_human IGF1R", "values": [{"variant": "F102C", "effect of a mutation on the interaction": "causing an interaction"}]}, {"variants_of": "B1", "conditions": "with etv1_human ETV1, P50549", "values": [{"variant": "F102C", "effect of a mutation on the interaction": "disrupting interaction strength"}]}, {"variants_of": "B1", "conditions": "with pk3ca_human PIK3CA", "values": [{"variant": "F102C", "effect of a mutation on the interaction": "increasing interaction strength"}]}]}
